The source of these data is US20170296640A1 (IMMATICS BIOTECHNOLOGIES, published 2017).

No end group written: not given here. A value given as a limit tells only on which side of the number the result lay.

The target in the experiment is T1, HLA-A*02:01 (peptide-receptive MHC class I monomer after UV cleavage of the UV-sensitive ligand) (human).
T1 construct: MHC monomers loaded by UV-ligand exchange and captured on streptavidin plates
Briefly: UV ligand-exchange ELISA; exchange yield grade (+ >=10%, ++ >=20%, +++ >=50%, ++++ >=75%). An excerpt:
Candidate peptides for T cell based therapies according to the present invention were further tested for their MHC binding capacity (affinity). The individual peptide-MHC complexes were produced by UV-ligand exchange, where a UV-sensitive peptide is cleaved upon UV-irradiation, and exchanged with the peptide of interest as analyzed. Only peptide candidates that can effectively bind and stabilize the peptide-receptive MHC molecules prevent dissociation of the MHC complexes. To determine the yield of the exchange reaction, an ELISA was performed based on the detection of the light chain (β2m) of stabilized MHC complexes. The assay was performed as generally described in Rodenko et al. (Rodenko et al., 2006).
96 well MAXISorp plates (NUNC) were coated over night with 2 ug/ml streptavidin in PBS at room temperature, washed 4× and blocked for 1 h at 37° C. in 2% BSA containing blocking buffer. Refolded HLA-A*02:01/MLA-001 monomers served as standards, covering the range of 15-500 ng/ml. Peptide-MHC monomers of the UV-exchange reaction were diluted 100 fold in blocking buffer. Samples were incubated for 1 h at 37° C., washed four times, incubated with 2 ug/ml HRP conjugated anti-β2m for 1 h at 37° C., washed again and detected with TMB solution that is stopped with […]. Absorption was measured at 450 nm. Candidate peptides that show a high exchange yield (preferably higher than 50%, most preferred higher than 75%) are generally preferred for a generation and production of antibodies or fragments thereof, and/or T cell receptors or fragments thereof, as they show sufficient avidity to the MHC molecules and prevent dissociation of the MHC complexes.

B1: FLYSETWNI (SEQ ID NO: 254) (peptide)
peptide: FLYSETWNI
For the molecule B1, the peptide exchange yield was at least 75%.

B2: ALDQFLEGI (SEQ ID NO: 218) (peptide)
peptide: ALDQFLEGI
As for B2, the peptide exchange yield was in the range of 50 to 75%.

B3: VLIDDTVLL (SEQ ID NO: 239) (peptide)
peptide: VLIDDTVLL
For B3, the peptide exchange yield was 50 to 75%.

B4: FLAEAPTAL (SEQ ID NO: 220) (peptide)
peptide: FLAEAPTAL
B4 registered a peptide exchange yield of 20 to 50%.

B5: FIPDFIPAV (SEQ ID NO: 241) (peptide)
peptide: FIPDFIPAV
The molecule B5 displayed a peptide exchange yield of 20 to 50%.

B6: VLTNVGAAL (SEQ ID NO: 250) (peptide)
peptide: VLTNVGAAL
For B6, the peptide exchange yield was in the range of 50 to 75%.

B7: KLPVPLESV (SEQ ID NO: 246) (peptide)
peptide: KLPVPLESV
The molecule B7 came in with a peptide exchange yield of 50 to 75%.

B8: FLIGQGAHV (SEQ ID NO: 212) (peptide)
peptide: FLIGQGAHV
Take B8: the peptide exchange yield was in the range of 50 to 75%.

B9: FLSPLLPLL (SEQ ID NO: 224) (peptide)
peptide: FLSPLLPLL
B9 yielded a peptide exchange yield of 20 to 50%.

B10: SLFDGFFLTA (SEQ ID NO: 236) (peptide)
peptide: SLFDGFFLTA
B10 gave a peptide exchange yield of at least 75%.

B11: GMWNPNAPVFL (SEQ ID NO: 255) (peptide)
peptide: GMWNPNAPVFL
In turn, B11 yielded a peptide exchange yield of at least 75%.

B12: AQFGAVLEV (SEQ ID NO: 217) (peptide)
peptide: AQFGAVLEV
On to B12, for which the peptide exchange yield is 50 to 75%.

B13: IMDDDSYGV (SEQ ID NO: 230) (peptide)
peptide: IMDDDSYGV
Consider B13, for which the peptide exchange yield lay in the range of 20 to 50%.

B14: FLGSFIDHV (SEQ ID NO: 26) (peptide)
peptide: FLGSFIDHV
Molecule B14 gave a peptide exchange yield of 50 to 75%.

B15: AVLGFSFRL (SEQ ID NO: 24) (peptide)
peptide: AVLGFSFRL
For the molecule B15, the peptide exchange yield lay in the range of 50 to 75%.

B16: ALKKHLTSV (SEQ ID NO: 22) (peptide)
peptide: ALKKHLTSV
On to B16, for which the peptide exchange yield lay in the range of 50 to 75%.

B17: YQYGAVVTL (SEQ ID NO: 238) (peptide)
peptide: YQYGAVVTL
B17 displayed a peptide exchange yield of 50 to 75%.

B18: ALVPTPALFYL (SEQ ID NO: 240) (peptide)
peptide: ALVPTPALFYL
B18 came in with a peptide exchange yield of 50 to 75%.

B19: IIAEGIPEA (SEQ ID NO: 227) (peptide)
peptide: IIAEGIPEA
The molecule B19 came in with a peptide exchange yield of 20 to 50%.

B20: QLFEEEIEL (SEQ ID NO: 215) (peptide)
peptide: QLFEEEIEL
B20 showed a peptide exchange yield of 20 to 50%.

B21: FLDTSNQHLL (SEQ ID NO: 25) (peptide)
peptide: FLDTSNQHLL
As to B21, the peptide exchange yield is 50 to 75%.

B22: FLAPDNSLLLA (SEQ ID NO: 221) (peptide)
peptide: FLAPDNSLLLA
For B22, the peptide exchange yield is at least 75%.

B23: YSDDDVPSV (SEQ ID NO: 253) (peptide)
peptide: YSDDDVPSV
In turn, B23 gave a peptide exchange yield of at least 75%.

B24: ILSPWGAEV (SEQ ID NO: 229) (peptide)
peptide: ILSPWGAEV
On to B24, for which the peptide exchange yield was at least 75%.

B25: YINEDEYEV (SEQ ID NO: 213) (peptide)
peptide: YINEDEYEV
For B25, the peptide exchange yield fell in the range of 20 to 50%.

B26: IVMGAIPSV (SEQ ID NO: 231) (peptide)
peptide: IVMGAIPSV
The molecule B26 registered a peptide exchange yield of 50 to 75%.

B27: FLFDGSMSL (SEQ ID NO: 214) (peptide)
peptide: FLFDGSMSL
B27: the peptide exchange yield was 50 to 75%.

B28: FLIETGTLL (SEQ ID NO: 222) (peptide)
peptide: FLIETGTLL
In turn, B28 came in with a peptide exchange yield of 50 to 75%.

B29: YLDRLIPQA (SEQ ID NO: 237) (peptide)
peptide: YLDRLIPQA
B29: the peptide exchange yield was in the range of 50 to 75%.

B30: VLYELFTYI (SEQ ID NO: 251) (peptide)
peptide: VLYELFTYI
B30 yielded a peptide exchange yield of 50 to 75%.

B31: SLDVYELFL (SEQ ID NO: 235) (peptide)
peptide: SLDVYELFL
The molecule B31 came in with a peptide exchange yield of 50 to 75%.

B32: KVMEGTVAA (SEQ ID NO: 232) (peptide)
peptide: KVMEGTVAA
For the molecule B32, the peptide exchange yield is 20 to 50%.

B33: ALQETPPQV (SEQ ID NO: 256) (peptide)
peptide: ALQETPPQV
The molecule B33 displayed a peptide exchange yield of 50 to 75%.

B34: GLPDLDIYL (SEQ ID NO: 243) (peptide)
peptide: GLPDLDIYL
As for B34, the peptide exchange yield is at least 75%.

B35: VLLESLVEI (SEQ ID NO: 249) (peptide)
peptide: VLLESLVEI
Regarding B35, the peptide exchange yield is at least 75%.

B36: ILEPFLPAV (SEQ ID NO: 244) (peptide)
peptide: ILEPFLPAV
For B36, the peptide exchange yield was 50 to 75%.

B37: GILDFZVFL (SEQ ID NO: 242) (peptide)
peptide: GILDFXVFL
modifications: not fully specified
On to B37, for which the peptide exchange yield was at least 75%.

B38: KVVSNLPAI (SEQ ID NO: 216) (peptide)
peptide: KVVSNLPAI
Molecule B38 displayed a peptide exchange yield of 20 to 50%.

B39: GVIDPVPEV (SEQ ID NO: 226) (peptide)
peptide: GVIDPVPEV
B39 returned a peptide exchange yield of 20 to 50%.

B40: NLLEQFILL (SEQ ID NO: 248) (peptide)
peptide: NLLEQFILL
B40 gave a peptide exchange yield of 50 to 75%.

B41: KVLEMETTV (SEQ ID NO: 247) (peptide)
peptide: KVLEMETTV
B41 returned a peptide exchange yield of 50 to 75%.

B42: YLGDLIMAL (SEQ ID NO: 252) (peptide)
peptide: YLGDLIMAL
Take B42: the peptide exchange yield was in the range of 50 to 75%.

B43: ALLELENSV (SEQ ID NO: 219) (peptide)
peptide: ALLELENSV
With B43, the peptide exchange yield was 20 to 50%.

B44: ALVEDIINL (SEQ ID NO: 23) (peptide)
peptide: ALVEDIINL
The molecule B44 had a peptide exchange yield of at least 75%.

B45: NLQRTVVTV (SEQ ID NO: 234) (peptide)
peptide: NLQRTVVTV
Molecule B45 showed a peptide exchange yield of 20 to 50%.

B46: IIAEYLSYV (SEQ ID NO: 228) (peptide)
peptide: IIAEYLSYV
B46 showed a peptide exchange yield of 20 to 50%.

B47: FLQDIPDGLFL (SEQ ID NO: 223) (peptide)
peptide: FLQDIPDGLFL
Molecule B47 showed a peptide exchange yield of 20 to 50%.

B48: MLEVHIPSV (SEQ ID NO: 233) (peptide)
peptide: MLEVHIPSV
As to B48, the peptide exchange yield lay in the range of 50 to 75%.

B49: KLIQLPVVYV (SEQ ID NO: 245) (peptide)
peptide: KLIQLPVVYV
In the case of B49, the peptide exchange yield fell in the range of 50 to 75%.
